The target in experiment [1] is T1, recombinant human ACE2 receptor construct (Homo sapiens, UniProt Q9BYF1).
T1 construct: included residues Glutamine 18 to Serine 740 of the full-length protein; 10xHis (C); purchased R&D Systems
Nature of the experiment: Surface plasmon resonance (SPR) binding of peptides to immobilised rhACE2. To be noted: pH 7.4, read-out: ka. (In SPR one partner is held on a chip, and binding of the other changes the refractive index at the surface.)
Description: The binding of the solute to the sensor surface ligand results in an evanescent sensor response and is measured in response units (RU) that are proportional to the bound mass.
Expressed viral spike and human ACE2 receptor protein constructs were supplied by R&D Systems (https://www.bio-techne.com accessed on 25 May 2023). The recombinant human ACE2 receptor construct included residues Glutamine 18 to Serine 740 of the full-length protein with a C-terminal 10 Histidine tag.
The organic-solvated peptides were then diluted into 1–2000 dilutions in the HBS–EP buffer for injection. Binding measurements were then made by flowing a running buffer solution of the test sample in the HBS–EP buffer over the chip-associated ACE2 at a flow rate of 30 µL/min for 5 min to determine the binding affinity at 37 °C. […] The binding associated with control medium containing no peptide was subtracted from final affinity traces. The mean “on” and “off” rate constants (kon and koff) and the dissociation equilibrium constant (KD = koff/kon) were calculated using Biacore Insight Evaluation Software version 5, based on curve-fitting measurements.

The target of experiment [2] is recombinant human ACE2 receptor construct (angiotensin-converting enzyme 2) (human) (UniProt Q9BYF1). The experiment is described as follows: SPR; Biacore T100; ACE2 immobilised on the sensor chip, peptide (from 1 mg/mL in DMSO, diluted in HBS-EP buffer, 0.5 µg/mL) flowed at 30 µL/min for 5 min; 37 °C; HBS-EP: 10 mM Hepes pH 7.4, 150 mM NaCl, 3 mM EDTA, 0.005% surfactant P20.

pKd: −log10 of the molar value. Bridges are numbered along the chain shown (N, C = ends). Where no end group is shown, it is not given here.

Sequence of recombinant human ACE2 receptor construct (angiotensin-converting enzyme 2) (human) (Q9BYF1 18-740): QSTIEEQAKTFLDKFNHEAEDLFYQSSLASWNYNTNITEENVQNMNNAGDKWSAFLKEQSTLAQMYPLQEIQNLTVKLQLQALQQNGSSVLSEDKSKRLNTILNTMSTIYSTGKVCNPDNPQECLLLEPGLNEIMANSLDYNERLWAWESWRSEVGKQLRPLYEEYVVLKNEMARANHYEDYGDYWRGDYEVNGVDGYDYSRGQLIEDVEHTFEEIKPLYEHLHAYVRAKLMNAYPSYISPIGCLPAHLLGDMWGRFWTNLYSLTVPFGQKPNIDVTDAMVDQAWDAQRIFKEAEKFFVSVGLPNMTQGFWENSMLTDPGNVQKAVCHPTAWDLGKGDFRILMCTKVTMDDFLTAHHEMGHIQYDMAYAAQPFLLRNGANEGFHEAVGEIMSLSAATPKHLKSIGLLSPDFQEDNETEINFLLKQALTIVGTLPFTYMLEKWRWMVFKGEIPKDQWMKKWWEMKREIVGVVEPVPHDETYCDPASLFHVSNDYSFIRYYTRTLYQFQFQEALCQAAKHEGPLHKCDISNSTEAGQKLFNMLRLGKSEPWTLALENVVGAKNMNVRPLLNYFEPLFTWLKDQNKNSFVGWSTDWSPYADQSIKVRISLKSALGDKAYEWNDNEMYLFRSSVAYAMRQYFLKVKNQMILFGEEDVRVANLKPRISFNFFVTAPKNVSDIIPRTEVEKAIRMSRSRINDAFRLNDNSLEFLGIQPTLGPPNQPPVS
T1 sequence (Q9BYF1 18-740): as above

For the substance “FPIPLPYCWLCRALIKRIQAMIPKGGRMLPQLVCRLVLRCS (disulfide 8-40, 11-34) [SMB]”, in experiment [1], the kon turned out to be 6200 M⁻¹ s⁻¹.

Take “FPIPLPYYWLYRALIKRIQALIPKGGRLLPQLVYRLVLRYS [B-YL]”: the kon in experiment [1] turned out to be 21900 M⁻¹ s⁻¹.

In general, pKd refers to −log10 of the Kd, conventionally taken in molar units. A word on the koff: it is a measure of how fast the partners let go of each other. Turning to “Super Mini-B (SMB), synthetic lung surfactant protein B peptide mimic”, in experiment [2], the Ka stood at 1.01e+08 M⁻¹, the pKd is 8.01, the Kobs (at 1.05 × 10^−7 analyte) was 0.000712 s⁻¹ and the koff turned out to be 6.12e-05 s⁻¹. For the same substance, the kon in experiment [2] was 6200 M⁻¹ s⁻¹.

The values above are taken from PMC10341807, “Lung Surfactant Protein B Peptide Mimics Interact with the Human ACE2 Receptor” (International Journal of Molecular Sciences, 2023).
